Laboratory results from patent publication US20260242478A1 (published 2026).
Where no end group is shown, it is not given here.

How the values were obtained:
[1] = molecular target: T1, PSMA Fab (006 PSMA Fab); assay: clonal phage ELISA on captured PSMA Fab, wells pre-incubated with PSMA antigen as competitor
T1 construct: also called Anti-PSMA Fab; anti-PSMA Fab
Description: (§1) Clonal phage were harvested as crude supernatants and screened via standard ELISAs. […] Prior to the addition of clonal phage. wells were incubated with blocking buffer and PSMA antigen or blocking buffer alone. Without washing or aspirating, clonal phage supernatants were then added to the wells and incubated for a short time. Wells were then washed followed by detection of bound phage using a horse radish conjugated anti-M13 antibody.

[2] = molecular target: T1, PSMA Fab (006 PSMA Fab); assay: clonal phage ELISA on biotinylated PSMA Fab captured on neutravidin, anti-M13-HRP detection;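 also: crude clonal phage supernatants added to wells preincubated with PSMA antigen in blocking buffer or with blocking buffer alone, brief binding period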
Description: as §1

[3] = molecular target: T2, PSMA Fab (006 PSMA Fab); assay: phage ELISA; biotinylated PSMA Fab on neutravidin plate, clonal phage supernatant, anti-M13 HRP; blocking buffer alone
T2 construct: also called Anti-PSMA Fab; anti-PSMA Fab
Description: as §1

[4] = molecular target: T2, PSMA Fab (006 PSMA Fab); assay: phage ELISA; biotinylated PSMA Fab on neutravidin plate pre-incubated with PSMA antigen as competitor, clonal phage supernatant, anti-M13 HRP
Description: as §1

[5] = molecular target: T3, PSMA Fab; assay: phage binding ELISA; biotinylated PSMA Fab on neutravidin plate, wells pre-incubated with PSMA antigen as competitor, clonal phage supernatant, anti-M13 HRP detection
T3 construct: also called Anti-PSMA Fab; 006 PSMA Fab
Description: as §1

[6] = molecular target: T3, PSMA Fab; assay: phage binding ELISA; biotinylated PSMA Fab on neutravidin plate, clonal phage supernatant, anti-M13 HRP detection; blocking buffer alone;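 also: before phage were added, wells were preincubated with blocking buffer either containing PSMA antigen or without it, and phage were then added with no wash in between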
Description: as §1

[7] = molecular target: T4, PSMA Fab (006 PSMA Fab); assay: phage binding ELISA; PSMA Fab wells pre-incubated with PSMA antigen as competitor, anti-M13 HRP detection
T4 construct: also called Anti-PSMA Fab
Description: as §1

[8] = molecular target: T4, PSMA Fab (006 PSMA Fab); assay: phage binding ELISA; biotinylated PSMA Fab on neutravidin plate, clonal phage supernatant, anti-M13 HRP detection;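 also: wells were preincubated with blocking buffer either containing PSMA antigen or without it before crude phage supernatant was added, briefly incubated, then washed prior to detection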
Description: as §1

Binder	Phage binding ELISA signal, Anti-PSMA Fab in presence of PSMA antigen [1]	Phage binding ELISA signal, Anti-PSMA Fab [2]	Phage binding ELISA signal, Anti-PSMA Fab in presence of PSMA [5]	Phage binding ELISA signal, Anti-PSMA Fab [6]	also measured
ADLRCVPEWMCMGI (peptide, not shown: large carriers, Clonal phage of the Peptide-180 library, tested as crude supernatant) [Phage-3190]	0.0654	2	–	–	–
FDRVCKPEWMCNGL (peptide, not shown: large carriers, Clonal phage of the Peptide-180 library, tested as crude supernatant) [Phage-3198]	0.0655	1.99	–	–	–
AAPMCIPAWMCHGF (peptide, not shown: large carriers, Clonal phage of the Peptide-180 library, tested as crude supernatant) [Phage-3187]	0.137	2	–	–	–
DSVLCVPSWMCHGF (cysteine pairing not given here; also: fused to phage pIII, fusion site not given here) [Phage-3239]	–	–	–	–	Phage binding ELISA signal, Anti-PSMA Fab [3]: 1.94; Phage binding ELISA signal, Anti-PSMA Fab with PSMA antigen [4]: 0.0834
LSPMCVPQWMCSGF (peptide, not shown: large carriers, Clonal phage of the Peptide-180 library, tested as crude supernatant) [Phage-3197]	0.119	1.99	–	–	–
VEVRCVPAWMCTGF (peptide, not shown: large carriers, Clonal phage of the Peptide-180 library, tested as crude supernatant) [Phage-3196]	0.0941	1.99	–	–	–
DTPKCIPQWMCVGF (cysteine pairing not given here; also: fused to phage pIII, linker and order not given here, Peptide-180 library clone, tested as clonal phage supernatant; not shown: pIII filament protein of the bacteriophage, to which the peptide is fused) [Phage-3210]	–	–	0.0677	1.97	–
IEKWCFPMWMCEGF (peptide, not shown: large carriers, cysteine pairing not given here; also: fused to phage pIII, junction sequence not given here, Clonal phage of the Peptide-180 library, tested as crude supernatant) [Phage-3185]	0.0806	2.01	–	–	–
VSELCRPAWMCHGF (peptide, not shown: large carriers, Clonal phage of the Peptide-180 library, tested as crude supernatant) [Phage-3186]	0.082	2	–	–	–
MVERCIPVWMCEGF [Phage-3241]	–	–	–	–	Phage binding ELISA signal, Anti-PSMA Fab [3]: 1.94; Phage binding ELISA signal, Anti-PSMA Fab with PSMA antigen [4]: 0.0937
VSVRCEPEWMCMGF (cysteine pairing not given here; also: fused to phage pIII, linker and order not given here, Peptide-180 library clone, tested as clonal phage supernatant; not shown: pIII filament protein of the bacteriophage, to which the peptide is fused) [Phage-3203]	–	–	0.0741	1.98	–
DHHICRPAWMCMGL (cysteine pairing not given here; also: fused to phage pIII, linker and order not given here, Peptide-180 library clone, tested as clonal phage supernatant; not shown: pIII filament protein of the bacteriophage, to which the peptide is fused) [Phage-3209]	–	–	0.0876	1.97	–
QHWQCVPRWMCDGF (peptide, not shown: large carriers, Clonal phage of the Peptide-180 library, tested as crude supernatant) [Phage-3191]	0.103	2	–	–	–
TVPLCKPLWMCYGF (cysteine pairing not given here; also: fused to phage pIII, linker and order not given here, Peptide-180 library clone, tested as clonal phage supernatant; not shown: pIII filament protein of the bacteriophage, to which the peptide is fused) [Phage-3212]	–	–	0.184	1.97	–
VVPLCIPQWMCAVF (cysteine pairing not given here; also: fused to phage pIII, linker and order not given here, Peptide-180 library clone, tested as clonal phage supernatant; not shown: pIII filament protein of the bacteriophage, to which the peptide is fused) [Phage-3201]	–	–	0.0757	1.98	–
VVVSCIPTWMCVGF (cysteine pairing not given here; also: fused to phage pIII, linker and order not given here, Peptide-180 library clone, tested as clonal phage supernatant; not shown: pIII filament protein of the bacteriophage, to which the peptide is fused) [Phage-3202]	–	–	0.103	1.98	–
HDPACVPSWMCFGF (cysteine pairing not given here; also: fused to phage pIII, linker and order not given here, Peptide-180 library clone, tested as clonal phage supernatant; not shown: pIII filament protein of the bacteriophage, to which the peptide is fused) [Phage-3207]	–	–	0.0668	1.98	–

Binder	Phage binding ELISA signal, Anti-PSMA Fab in presence of PSMA antigen [1]	Phage binding ELISA signal, Anti-PSMA Fab [2]	Phage binding ELISA signal, Anti-PSMA Fab in presence of PSMA [5]	Phage binding ELISA signal, Anti-PSMA Fab [6]	also measured
VVKICQPDWMCWGF (cysteine pairing not given here; also: fused to phage pIII, linker and order not given here, Peptide-180 library clone, tested as clonal phage supernatant; not shown: pIII filament protein of the bacteriophage, to which the peptide is fused) [Phage-3205]	–	–	0.0655	1.98	–
VTVRCEPAWMCMGF (cysteine pairing not given here; also: fused to phage pIII, linker and order not given here, Peptide-180 library clone, tested as clonal phage supernatant; not shown: pIII filament protein of the bacteriophage, to which the peptide is fused) [Phage-3199]	–	–	0.0999	1.98	–
PEAMCRPTWMCAGF (cysteine pairing not given here; also: fused to phage pIII, linker and order not given here, Peptide-180 library clone, tested as clonal phage supernatant; not shown: pIII filament protein of the bacteriophage, to which the peptide is fused) [Phage-3211]	–	–	0.0674	1.97	–
ETSMCRPSWMCEGF [Phage-3242]	–	–	–	–	Phage binding ELISA signal, Anti-PSMA Fab [3]: 1.94; Phage binding ELISA signal, Anti-PSMA Fab with PSMA antigen [4]: 0.0918
LERLCQPSWMCTGF (cysteine pairing not given here; also: fused to phage pIII, linker and order not given here, Peptide-180 library clone, tested as clonal phage supernatant; not shown: pIII filament protein of the bacteriophage, to which the peptide is fused) [Phage-3204]	–	–	0.0739	1.98	–
PFAYCVPQWMCEAF (cysteine pairing not given here; also: fused to phage pIII, linker and order not given here, Peptide-180 library clone, tested as clonal phage supernatant; not shown: pIII filament protein of the bacteriophage, to which the peptide is fused) [Phage-3208]	–	–	0.0639	1.98	–
MVRLCEPEWMCTGF [Phage-3184]	–	–	–	–	Phage binding ELISA signal, Anti-PSMA Fab with PSMA antigen [7]: 0.116; Phage binding ELISA signal, Anti-PSMA Fab [8]: 2.01
LEALCVPRWMCEGF (peptide, not shown: large carriers, Clonal phage of the Peptide-180 library, tested as crude supernatant) [Phage-3189]	0.096	2	–	–	–
VNVRCEPSWMCTGL [Phage-3243]	–	–	–	–	Phage binding ELISA signal, Anti-PSMA Fab [3]: 1.94; Phage binding ELISA signal, Anti-PSMA Fab with PSMA antigen [4]: 0.0801
TVVKCVPEWMCEWL (cysteine pairing not given here; also: fused to phage pIII, linker and order not given here, Peptide-180 library clone, tested as clonal phage supernatant; not shown: pIII filament protein of the bacteriophage, to which the peptide is fused) [Phage-3206]	–	–	0.0606	1.98	–
VTPLCVPKWMCELF (cysteine pairing not given here; also: fused to phage pIII, linker and order not given here, Peptide-180 library clone, tested as clonal phage supernatant; not shown: pIII filament protein of the bacteriophage, to which the peptide is fused) [Phage-3200]	–	–	0.0878	1.98	–
DMRVCKPEWMCTGL (peptide, not shown: large carriers, Clonal phage of the Peptide-180 library, tested as crude supernatant) [Phage-3188]	0.109	2	–	–	–
HEHFCRPLWMCTGL (peptide, not shown: large carriers, Clonal phage of the Peptide-180 library, tested as crude supernatant) [Phage-3195]	0.0753	1.99	–	–	–
GFRICEPEWMCVGF [Phage-3240]	–	–	–	–	Phage binding ELISA signal, Anti-PSMA Fab [3]: 1.94; Phage binding ELISA signal, Anti-PSMA Fab with PSMA antigen [4]: 0.0629
EVVMCRPLWMCSGF (peptide, not shown: large carriers, Clonal phage of the Peptide-180 library, tested as crude supernatant) [Phage-3192]	0.0925	2	–	–	–
DMPLCIPAWMCAGF (peptide, not shown: large carriers, cysteine pairing not given here; also: fused to phage pIII, junction sequence not given here, Clonal phage of the Peptide-180 library, tested as crude supernatant) [Phage-3194]	0.0615	1.99	–	–	–
GEAVCIPRWMCDGF (peptide, not shown: large carriers, Clonal phage of the Peptide-180 library, tested as crude supernatant) [Phage-3193]	0.0937	1.99	–	–	–
